The values that follow are results of earlier work, collected in article PMC3061256.

What is called Kd is the free concentration of one partner at which half of the binding sites on the other are occupied at equilibrium, for simple one-to-one binding.

This series concerns the target HPr (Escherichia coli) (UniProt P0AA04).

Consider “EIN (enzyme I N-terminal domain) N-terminal domain (from UniProt P08839)”, for which the Kd is 10 µM.
